Measurements from patent publication US20100092974A1, “METHODS FOR SCREENING FOR MODULATORS OF CCRL2” (The Board of Trustees of the Leland Stanford Junior …, priority 2008, published 2010).

Tests used:
[1] = target: T1, mCCRL2 (Mus musculus, UniProt O35457); assay: in vitro transwell chemotaxis, mCCRL2/L1.2 transfectants; assay type: cell-based; settings: range of doses; CXCL12 and CCL19 act via endogenous CXCR4 and CCR7
T1 construct: The coding regions of mCCRL2, huCCRL2, mCRTH2, and huCCR10 were amplified from genomic DNA; expressed in transfected cells
T1 sequence (O35457 1-360): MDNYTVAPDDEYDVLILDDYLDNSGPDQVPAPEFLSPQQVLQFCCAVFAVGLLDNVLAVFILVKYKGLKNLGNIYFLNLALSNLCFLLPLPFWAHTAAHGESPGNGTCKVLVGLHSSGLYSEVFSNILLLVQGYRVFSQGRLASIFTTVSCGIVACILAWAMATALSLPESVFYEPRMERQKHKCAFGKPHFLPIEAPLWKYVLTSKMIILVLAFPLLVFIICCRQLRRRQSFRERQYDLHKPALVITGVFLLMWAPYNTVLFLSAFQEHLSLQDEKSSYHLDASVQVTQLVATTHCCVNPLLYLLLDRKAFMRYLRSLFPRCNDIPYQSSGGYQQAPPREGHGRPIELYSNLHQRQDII
Procedure: (§1) For migration experiments using cell lines, 2.5×10^5 cells/100 μl chemotaxis media (RPMI+10% fetal calf serum) were added to the top wells of 5-um pore transwell inserts (Costar, Corning, N.Y., USA), and test samples in 600 μl media were added to the bottom wells. After incubating the transwell plates for 1.5 hours at 37° C., the bottom wells were harvested and flow cytometry was used to assess migration. For primary cell chemotaxis, 1×10^6 cells/100 μl were added to the top well, and, following a 2 hour incubation at 37° C., polystyrene beads (15.0 μm diameter, Polysciences, Warrington, Pa., USA) were added to each well to facilitate normalization of the cell count. The cells were then stained for c-kit, F4/80, and/or CD11b expression and analyzed by flow cytometry. A ratio was generated and percent input migration was calculated.

[2] = target: T2, huCCRL2 (Homo sapiens, UniProt O00421); assay: in vitro transwell chemotaxis, huCCRL2-HA/L1.2 transfectants; assay type: cell-based; settings: range of doses; CXCL12 and CCL19 act via endogenous CXCR4 and CCR7
T2 construct: The coding regions of mCCRL2, huCCRL2, mCRTH2, and huCCR10 were amplified from genomic DNA; expressed in transfected cells
T2 sequence (O00421 1-344): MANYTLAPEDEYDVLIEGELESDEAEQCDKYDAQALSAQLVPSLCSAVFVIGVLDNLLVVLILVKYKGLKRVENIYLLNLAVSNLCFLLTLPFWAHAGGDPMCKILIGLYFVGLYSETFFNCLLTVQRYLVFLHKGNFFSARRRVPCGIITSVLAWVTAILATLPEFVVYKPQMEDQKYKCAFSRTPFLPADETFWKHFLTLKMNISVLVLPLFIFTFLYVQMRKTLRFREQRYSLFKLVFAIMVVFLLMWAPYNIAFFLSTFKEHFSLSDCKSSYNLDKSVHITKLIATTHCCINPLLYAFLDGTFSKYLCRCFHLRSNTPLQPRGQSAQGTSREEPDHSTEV
Procedure: as §1

[3] = system: bEND3 cells; assay: CCRL2 expression in TNFα-treated bEND3 endothelioma cells; assay type: cell-based, mouse; settings: 24-hour treatment, 20 ng/ml
Description: FIG. 22. […] Panel A. Robust upregulation of CCRL2 RNA by microarray analysis (Affymetrix®). Panel B. TNFα-treated bEND3 cells acquire CCRL2 surface protein (but not CMKLR1 expression) as determined by mAb staining and flow cytometry. Panel C. […] CCRL2/L1.2 and empty vector pcDNA3/L1.2 transfectants are shown as controls. The mean+/−SD of triplicate wells is shown for an individual experiment. A representative data set of 2 performed with similar results is shown for parts B and C, and n=1 for part A.
2005. J Exp Med 201: 509-515). […] We observed the same TNFα-mediated induction of protein expression by mAb staining […].

[4] = system: peritoneal macrophages; assay: mCCRL2 expression on peritoneal macrophages cultured 24 h with stimuli; settings: 24 h culture with stimulus
[5] = target: T1, mCCRL2; assay: intracellular calcium mobilization, mCCRL2/L1.2 transfectants; assay type: cell-based; settings: Fluo-4; CXCL12 acts via endogenous CXCR4
Procedure: (§2) Chemoattractant-stimulated Ca^2+-mobilization was performed following Alliance for Cell Signaling protocol ID PP00000210. Cells (3×10^6/mL) were loaded with 4 μM Fluo4-AM and 0.16% Pluronic acid F-127 (Molecular Probes) in modified Iscove's medium (Iscove's medium with 1% heat inactivated bovine calf serum and 2 mM L-glutamine, Invitrogen) for 30 minutes at 37° C. The samples were mixed every 10 minutes during loading, washed once, resuspended at up to 2×10^6/mL in the same buffer, and allowed to rest in the dark for 30 minutes at room temperature. Chemoattractant-stimulated change in Ca^2+-sensitive fluorescence of Fluo-4 was measured over real-time with a FACsScan flow cytometer and CellQuest software (BD Biosciences) at room temperature under constant stirring (500 rpm). Fluorescent data were acquired continuously up to 1024 seconds at 1-second intervals. The samples were analyzed for 45 seconds to establish basal state, removed from the nozzle to add the stimuli, and then returned to the nozzle. Mean channel fluorescence over time was analyzed with FlowJo (TreeStar, Ashland, Oreg., USA) software. […] 500 μl of these chemerin-loaded cells were added to mCMKLR1/L1.2 cells loaded with Fluo4-AM, and calcium mobilization was evaluated.

[6] = system: mouse peritoneal mast cells; assay: intracellular calcium mobilization, freshly isolated peritoneal mast cells; assay type: cell-based; settings: 1000 nM chemerin, 100 nM ATP
Procedure: as §2

[7] = system: mouse peritoneal mast cells; assay: in vitro transwell chemotaxis, peritoneal mast cells; assay type: cell-based; settings: SSChigh CD11b- c-kit+ cells
Procedure: as §1

[8] = target: mouse CCRL2 (chemokine (CC motif) receptor-like 2), untagged (mouse) (UniProt O35457); assay: saturation binding of 125I-chemerin 21-148 to mCCRL2/L1.2 cells, one-site fit; saturation binding, single site
[9] = target: T3, mouse CCRL2 (chemokine (CC motif) receptor-like 2), untagged (mouse, UniProt O35457 1-360); assay: flow cytometry on peritoneal mast cells (F4/80-, c-kit+ gate) of WT and CCRL2 KO mice, 10 nM His8-tagged isoform, anti-His6 PE [panel E]
T3 construct: whole, on cells; also called mCCRL2; mCCRL2/L1.2
T3 sequence (looked up): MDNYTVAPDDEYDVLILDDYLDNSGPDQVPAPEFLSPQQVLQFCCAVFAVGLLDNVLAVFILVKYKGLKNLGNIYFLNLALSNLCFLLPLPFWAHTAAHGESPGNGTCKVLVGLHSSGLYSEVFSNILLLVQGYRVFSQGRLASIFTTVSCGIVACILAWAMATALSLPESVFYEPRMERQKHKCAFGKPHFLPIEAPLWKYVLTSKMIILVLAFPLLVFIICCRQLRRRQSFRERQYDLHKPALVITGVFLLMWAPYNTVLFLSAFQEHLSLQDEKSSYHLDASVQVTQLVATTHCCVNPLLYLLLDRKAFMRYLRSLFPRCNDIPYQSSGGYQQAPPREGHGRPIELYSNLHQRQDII

[10] = target: T3, mouse CCRL2 (chemokine (CC motif) …); assay: flow cytometry on WT peritoneal mast cells; competitor displaced: 10 nM His8-tagged serum form chemerin, anti-His6 PE [panel E]
[11] = target: T4, human CCRL2 with an engineered N-terminal hemagglutinin (HA) tag (human, UniProt O00421 1-344); assay: flow cytometry; untagged chemerin competes with 10 nM His8-tagged serum form human chemerin, detected with anti-His6 PE
T4 construct: whole, on cells; also called huCCRL2-HA; not shown: engineered N-terminal HA tag
T4 sequence (looked up): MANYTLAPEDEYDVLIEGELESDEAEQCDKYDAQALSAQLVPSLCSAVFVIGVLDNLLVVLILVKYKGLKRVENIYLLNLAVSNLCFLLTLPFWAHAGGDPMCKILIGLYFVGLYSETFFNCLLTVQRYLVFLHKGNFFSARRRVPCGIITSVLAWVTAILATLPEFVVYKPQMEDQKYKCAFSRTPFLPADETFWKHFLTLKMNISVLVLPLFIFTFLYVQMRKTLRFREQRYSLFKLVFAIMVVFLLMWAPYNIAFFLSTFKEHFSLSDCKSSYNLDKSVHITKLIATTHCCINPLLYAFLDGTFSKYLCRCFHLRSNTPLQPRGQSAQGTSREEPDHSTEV

[12] = target: T5, mouse CCRL2 with an engineered N-terminal hemagglutinin (HA) tag (mouse, UniProt O35457 1-360); assay: as above
T5 construct: whole, on cells; also called mCCRL2-HA; mCCRL2-HA/L1.2; not shown: engineered N-terminal HA tag
T5 sequence (looked up): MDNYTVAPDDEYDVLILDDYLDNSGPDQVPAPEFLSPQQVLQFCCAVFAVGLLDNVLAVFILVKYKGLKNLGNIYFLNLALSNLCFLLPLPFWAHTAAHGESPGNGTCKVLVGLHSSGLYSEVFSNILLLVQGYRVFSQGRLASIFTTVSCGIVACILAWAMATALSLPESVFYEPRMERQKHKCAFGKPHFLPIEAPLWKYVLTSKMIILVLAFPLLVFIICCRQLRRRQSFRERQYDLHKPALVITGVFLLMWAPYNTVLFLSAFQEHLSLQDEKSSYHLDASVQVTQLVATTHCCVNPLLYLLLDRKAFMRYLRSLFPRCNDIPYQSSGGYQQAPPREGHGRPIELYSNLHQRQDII

## CCL19: chemokine, positive control via CCR7
[1]
  transwell migration: migrated
[2]
  transwell migration: migrated

## CCL11: known chemoattractant
[1]
  transwell migration: none stimulated

## CCL28: known chemoattractant
[1]
  transwell migration: none stimulated

## CCL7: chemokine purchased from R&D Systems
[1]
  transwell migration: did not induce migration

## TNFα
[3]
  CCRL2 mRNA: highly upregulated
  CCRL2 protein expression by mAb staining: induction
[4]
  mCCRL2 protein expression on peritoneal macrophages: upregulated

## CXCL12: chemokine, positive control via CXCR4
[1]
  transwell migration: migrated
[5]
  intracellular calcium mobilization: responded
[2]
  transwell migration: migrated

## poly:IC
[4]
  mCCRL2 protein expression on peritoneal macrophages: upregulated

## CXCL9: known chemoattractant
[1]
  transwell migration: none stimulated

## Nc1ncnc2c1ncn2[C@@H]1O[C@H](COP(=O)(O)OP(=O)(O)OP(=O)(O)O)[C@@H](O)[C@H]1O [ATP, reference compound]
[6]
  intracellular calcium mobilization: responded

## IFNγ: cytokine purchased from Roche
[4]
  mCCRL2 protein expression on peritoneal macrophages: upregulated

## CCL5: chemokine purchased from R&D Systems
[1]
  transwell migration: did not induce migration

## CXCL13: known chemoattractant
[1]
  transwell migration: none stimulated

## SCF: stem cell factor, positive control for mast cell chemotaxis [reference compound]
[7]
  transwell migration: migrated

B1: radioiodinated human chemerin (residues 21-148) (ligand, UniProt Q99969 21-148, looked up)
chain: ELTEAQRRGLQVALEEFHKHPPVQWAFQETSVESAVDTPFPAGIFVRLEFKLQQTSCRKRDWKKPECKVRPNGRKRKCLACIKLGSEDKVLGRLVHCPIETQVLREAEEHQETQCLRVQRAGEDPHSF
modifications: 125I-labelled (radioiodinated), specific activity 97 Ci/g
[8]
  Kd: 1.6 nM

B2: carboxyl-terminal His8-tagged "pro-form" human chemerin (ligand)
chain: ADPELTEAQRRGLQVALEEFHKHPPVQWAFQETSVESAVDTPFPAGIFVRLEFKLQQTSCRKRDWKKPECKVRPNGRKRKCLACIKLGSEDKVLGRLVHCPIETQVLREAEEHQETQCLRVQRAGEDPHSFYFPGQFAFSKALPRSPHHHHHHHH
notes: Printed with an ellipsis, and with six H although called His8-tagged; also called His8-tagged chemerin isoform
[9]
  binding result: binds

B3: pro-form (1000 nM untagged chemerin isoform) (ligand)
chain: ADPELTEAQRRGLQVALEEFHKHPPVQWAFQETSVESAVDTPFPAGIFVRLEFKLQQTSCRKRDWKKPECKVRPNGRKRKCLACIKLGSEDKVLGRLVHCPIETQVLREAEEHQETQCLRVQRAGEDPHSFYFPGQFAFSKALPRSPH
notes: also called untagged pro-form human chemerin, His8 tag removed by carboxypeptidase A
[10]
  binding result: binds

B4: untagged "serum form" human chemerin (His8 tag removed by carboxypeptidase A) (ligand)
chain: ADPELTEAQRRGLQVALEEFHKHPPVQWAFQETSVESAVDTPFPAGIFVRLEFKLQQTSCRKRDWKKPECKVRPNGRKRKCLACIKLGSEDKVLGRLVHCPIETQVLREAEEHQETQCLRVQRAGEDPHSFYFPGQFAPH
notes: The assays print 'untagged serum form chemerin' or 'serum form chemerin' without the species; Printed with an ellipsis; also called untagged serum form chemerin; untagged chemerin
[11]
  EC50: 7 nM
[12]
  EC50: 45 nM

B5: CCL8: chemokine purchased from R&D Systems (protein, UniProt P80075 24-99, looked up)
C-C motif chemokine 8: QPDSVSIPITCCFNVINRKIPIQRLESYTRITNIQCPKEAVIFKTKRGKEVCADPKERWVRDSMKHLDQIFQNLKP
[1]
  transwell migration: did not induce migration

B6: CCL17: known chemoattractant (protein, UniProt Q92583 24-94, looked up)
C-C motif chemokine 17: ARGTNVGRECCLEYFKGAIPLRKLKTWYQTSEDCSRDAIVFVTVQGRAICSDPNNKRVKNAVKYLQSLERS
[1]
  transwell migration: none stimulated

B7: CCL22: known chemoattractant (protein, UniProt O00626 25-93, looked up)
C-C motif chemokine 22: GPYGANMEDSVCCRDYVRYRLPLRVVKHFYWTSDSCPRPGVVLLTFRDKEICADPRVPWVKMILNKLSQ
[1]
  transwell migration: none stimulated

B8: CCL25: known chemoattractant (protein, UniProt O15444 24-150, looked up)
C-C motif chemokine 25: QGVFEDCCLAYHYPIGWAVLRRAWTYRIQEVSGSCNLPAAIFYLPKRHRKVCGNPKSREVQRAMKLLDARNKVFAKLHHNTQTFQAGPHAVKKLSSGNSKLSSSKFSNPISSSKRNVSLLISANSGL
[1]
  transwell migration: none stimulated

B9: CCL27: known chemoattractant (protein, UniProt Q9Y4X3 25-112, looked up)
C-C motif chemokine 27: FLLPPSTACCTQLYRKPLSDKLLRKVIQVELQEADGDCHLQAFVLHLAQRSICIHPQNPSLSQWFEHQERKLHGTLPKLNFGMLRKMG
[1]
  transwell migration: none stimulated
